Experimental data as given in US20230250154A1 (CYTONICS, published 2023).
One block for each binder: values may come before it.

Experiments:
Test in all cases: cell-based or functional assay
[1] = molecular target: T1, MMP7 (UniProt P09237 95-267, limits assumed)
T1 sequence (looked up): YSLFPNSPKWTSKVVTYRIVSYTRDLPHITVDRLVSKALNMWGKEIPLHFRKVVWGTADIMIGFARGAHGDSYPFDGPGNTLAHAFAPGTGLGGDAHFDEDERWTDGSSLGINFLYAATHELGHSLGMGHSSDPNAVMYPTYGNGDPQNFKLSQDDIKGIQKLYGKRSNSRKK

[2] = molecular target: MMP9 (human, UniProt P14780 107-707, limits assumed)
Sequence of MMP9 (P14780 107-707 limits assumed): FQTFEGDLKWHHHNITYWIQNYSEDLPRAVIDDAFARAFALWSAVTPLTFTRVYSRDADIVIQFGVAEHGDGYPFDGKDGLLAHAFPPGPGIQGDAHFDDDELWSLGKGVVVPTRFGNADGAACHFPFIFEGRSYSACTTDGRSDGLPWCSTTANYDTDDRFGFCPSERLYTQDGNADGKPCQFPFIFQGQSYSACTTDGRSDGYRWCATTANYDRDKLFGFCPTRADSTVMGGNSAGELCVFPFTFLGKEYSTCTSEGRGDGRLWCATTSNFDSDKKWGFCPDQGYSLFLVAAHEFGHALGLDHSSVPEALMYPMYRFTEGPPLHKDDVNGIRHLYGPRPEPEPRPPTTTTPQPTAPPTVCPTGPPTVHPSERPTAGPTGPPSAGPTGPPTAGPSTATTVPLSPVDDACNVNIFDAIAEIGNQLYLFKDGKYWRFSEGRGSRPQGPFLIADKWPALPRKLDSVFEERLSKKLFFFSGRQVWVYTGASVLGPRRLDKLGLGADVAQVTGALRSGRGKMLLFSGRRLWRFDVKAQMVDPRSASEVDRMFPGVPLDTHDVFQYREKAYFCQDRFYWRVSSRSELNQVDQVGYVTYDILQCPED

[3] = molecular target: MMP13 (human, UniProt P45452 104-471, limits assumed)
[4] = molecular target: T2, ADAMTS5 (human, UniProt Q9UNA0 262-622, limits assumed)
T2 sequence (looked up): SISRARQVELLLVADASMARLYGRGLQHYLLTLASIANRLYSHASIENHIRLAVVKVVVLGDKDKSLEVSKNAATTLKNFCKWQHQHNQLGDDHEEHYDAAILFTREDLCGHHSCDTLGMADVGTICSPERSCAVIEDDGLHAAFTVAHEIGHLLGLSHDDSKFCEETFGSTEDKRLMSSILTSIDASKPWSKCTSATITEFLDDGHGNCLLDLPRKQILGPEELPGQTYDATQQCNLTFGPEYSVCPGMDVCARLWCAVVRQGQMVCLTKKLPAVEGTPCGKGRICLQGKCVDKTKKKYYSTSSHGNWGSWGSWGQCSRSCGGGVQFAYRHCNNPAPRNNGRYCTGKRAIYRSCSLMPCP

[5] = molecular target: MMP3 (human, UniProt P08254 100-477, limits assumed)
Sequence of MMP3 (P08254 100-477 limits assumed): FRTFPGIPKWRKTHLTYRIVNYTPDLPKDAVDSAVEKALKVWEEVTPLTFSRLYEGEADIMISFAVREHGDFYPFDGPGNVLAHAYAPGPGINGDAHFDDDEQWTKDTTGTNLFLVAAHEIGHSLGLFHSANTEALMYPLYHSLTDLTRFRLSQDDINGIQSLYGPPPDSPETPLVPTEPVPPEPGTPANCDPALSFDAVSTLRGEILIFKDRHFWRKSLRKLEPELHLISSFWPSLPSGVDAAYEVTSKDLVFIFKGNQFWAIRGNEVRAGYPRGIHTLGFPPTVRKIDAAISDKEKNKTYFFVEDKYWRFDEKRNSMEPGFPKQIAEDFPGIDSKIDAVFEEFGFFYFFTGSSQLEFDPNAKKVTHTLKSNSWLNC

[6] = molecular target: T3, Cathepsin G (UniProt P08311 21-244)
T3 sequence (looked up): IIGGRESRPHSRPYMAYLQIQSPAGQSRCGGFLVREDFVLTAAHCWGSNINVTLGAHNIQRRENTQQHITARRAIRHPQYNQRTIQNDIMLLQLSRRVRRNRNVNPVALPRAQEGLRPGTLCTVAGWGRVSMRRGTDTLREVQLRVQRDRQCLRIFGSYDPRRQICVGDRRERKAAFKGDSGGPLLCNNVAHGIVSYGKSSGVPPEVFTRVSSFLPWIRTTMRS

[7] = molecular target: Elastase
[8] = molecular target: T4, MMP2 (human, UniProt P08253 110-660, limits assumed)
T4 sequence (looked up): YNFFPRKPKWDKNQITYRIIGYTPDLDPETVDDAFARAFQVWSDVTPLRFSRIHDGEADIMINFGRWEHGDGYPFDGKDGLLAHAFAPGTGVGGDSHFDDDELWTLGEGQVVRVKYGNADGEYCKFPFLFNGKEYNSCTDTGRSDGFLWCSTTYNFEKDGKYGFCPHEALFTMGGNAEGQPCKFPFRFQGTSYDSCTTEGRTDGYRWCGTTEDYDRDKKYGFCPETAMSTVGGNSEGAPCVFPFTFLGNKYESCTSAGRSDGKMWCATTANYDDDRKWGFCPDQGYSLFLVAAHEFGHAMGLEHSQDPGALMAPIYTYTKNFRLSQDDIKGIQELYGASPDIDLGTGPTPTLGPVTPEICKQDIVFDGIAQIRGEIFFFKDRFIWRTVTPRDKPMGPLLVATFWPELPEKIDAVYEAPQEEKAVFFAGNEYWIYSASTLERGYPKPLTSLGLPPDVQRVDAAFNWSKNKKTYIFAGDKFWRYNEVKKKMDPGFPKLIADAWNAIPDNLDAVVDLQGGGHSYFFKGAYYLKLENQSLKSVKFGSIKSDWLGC

[9] = molecular target: T5, MMP1 (human, UniProt P03956 100-469, limits assumed)
T5 sequence (looked up): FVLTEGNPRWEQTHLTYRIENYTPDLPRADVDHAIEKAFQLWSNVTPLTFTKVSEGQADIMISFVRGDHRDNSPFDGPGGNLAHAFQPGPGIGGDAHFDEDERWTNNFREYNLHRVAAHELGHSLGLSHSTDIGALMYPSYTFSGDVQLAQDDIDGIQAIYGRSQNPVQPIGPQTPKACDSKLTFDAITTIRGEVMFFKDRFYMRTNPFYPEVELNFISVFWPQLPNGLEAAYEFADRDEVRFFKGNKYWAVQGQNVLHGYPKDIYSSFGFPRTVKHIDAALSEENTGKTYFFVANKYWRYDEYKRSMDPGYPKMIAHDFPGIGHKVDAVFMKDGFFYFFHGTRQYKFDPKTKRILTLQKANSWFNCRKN

[10] = molecular target: T6, ADAMTS4 (human, UniProt O75173 213-685, limits assumed)
T6 sequence (looked up): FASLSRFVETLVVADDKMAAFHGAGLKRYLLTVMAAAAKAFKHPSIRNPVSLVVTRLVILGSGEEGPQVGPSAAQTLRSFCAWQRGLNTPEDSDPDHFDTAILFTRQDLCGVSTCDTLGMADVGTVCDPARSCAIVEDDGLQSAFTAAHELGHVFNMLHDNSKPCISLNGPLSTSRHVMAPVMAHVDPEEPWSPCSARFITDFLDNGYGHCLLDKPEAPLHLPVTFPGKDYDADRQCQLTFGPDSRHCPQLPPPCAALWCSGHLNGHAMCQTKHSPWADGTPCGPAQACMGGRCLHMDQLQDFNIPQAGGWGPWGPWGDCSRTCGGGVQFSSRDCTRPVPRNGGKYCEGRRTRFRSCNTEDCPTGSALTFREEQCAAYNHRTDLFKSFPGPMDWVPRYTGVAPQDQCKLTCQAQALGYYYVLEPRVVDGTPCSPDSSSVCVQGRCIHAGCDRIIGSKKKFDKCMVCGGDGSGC

[11] = molecular target: MMP8 (human, UniProt P22894 101-467, limits assumed)
Sequence of MMP8 (P22894 101-467 limits assumed): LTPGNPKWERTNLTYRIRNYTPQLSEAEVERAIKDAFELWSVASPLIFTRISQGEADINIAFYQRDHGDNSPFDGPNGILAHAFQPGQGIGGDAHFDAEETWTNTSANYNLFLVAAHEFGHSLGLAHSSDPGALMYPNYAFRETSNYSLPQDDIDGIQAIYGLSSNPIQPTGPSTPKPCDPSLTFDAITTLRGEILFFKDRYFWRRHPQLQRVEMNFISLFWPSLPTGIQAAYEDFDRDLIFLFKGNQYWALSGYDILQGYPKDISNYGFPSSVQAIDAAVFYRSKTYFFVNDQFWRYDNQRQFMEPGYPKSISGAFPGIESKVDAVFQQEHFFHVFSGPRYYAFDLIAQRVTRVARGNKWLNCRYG

- Protease Inhibition (% of WT) [1]: 160 % of WT
- Protease Inhibition (% of WT) [2]: 0 % of WT
- Protease Inhibition (% of WT) [3]: 72 % of WT
- Protease Inhibition (% of WT) [4]: 440 % of WT
- Protease Inhibition (% of WT) [5]: 182 % of WT
- Protease Inhibition (% of WT) [6]: 105 % of WT
- Protease Inhibition (% of WT) [7]: 117 % of WT
- Protease Inhibition (% of WT) [8]: 16 % of WT
- Protease Inhibition (% of WT) [9]: 108 % of WT
- Protease Inhibition (% of WT) [10]: 208 % of WT
- Protease Inhibition (% of WT) [11]: 54 % of WT
B1: Variant A2M, bait region SEQ ID NO 12 (other)
chain: SVSGKPQYMVLVPSLLHTETTEKGCVLLSYLNETVTVSASLESVRGNRSLFTDLEAENDVLHCVAFAVPKSSSNEEVMFLTVQVKGPTQEFKKRTTVMVKNEDSLVFVQTDKSIYKPGQTVKFRVVSMDENFHPLNELIPLVYIQDPKGNRIAQWQSFQLEGGLKQFSFPLSSEPFQGSYKVVVQKKSGGRTEHPFTVEEFVLPKFEVQVTVPKIITILEEEMNVSVCGLYTYGKPVPGHVTVSICRKYSDASDCHGEDSQAFCEKFSGQLNSHGCFYQQVKTKVFQLKRKEYEMKLHTEAQIQEEGTVVELTGRQSSEITRTITKLSFVKVDSHFRQGIPFFGQVRLVDGKGVPIPNKVIFIRGNEANYYSNATTDEHGLVQFSINTTNVMGTSLTVRVNYKDRSPCYGYQWVSEEHEEAHHTAYLVFSPSKSFVHLEPMSHELPCGHTQTVQAHYILNGGTLLGLKKLSFYYLIMAKGGIVRTGTHGLLVKQEDMKGHFSISIPVKSDIAPVARLLIYAVLPTGDVIGDSAKYDVENCLANKVDLSFSPSQSLPASHAHLRVTAAPQSVCALRAVDQSVLLMKPDAELSASSVYNLLPEKDLTGFPGPLNDQDDEDCINRHNVYINGITYTPVSSTNEKDMYSFLEDMGLKAFTNSKIRKPKMCPQLEHGPEGEGEGEIPENFEFRGVSEDLVVQISELEGRGSVEEPHTKLRKYFPETWIWDLVVVNSAGVAEVGVTVPDTITEWKAGAFCLSEDAGLGISSTASLRAFQPFFVELTMPYSVIRGEAFTLKATVLNYLPKCIRVSVQLEASPAFLAVPVEKEQAPHCICANGRQTVSWAVTPKSLGNVNFTVSAEALESQELCGTEVPSVPEHGRKDTVIKPLLVEPEGLEKETTFNSLLCPSGGEVSEELSLKLPPNVVEESARASVSVLGDILGSAMQNTQNLLQMPYGCGEQNMVLFAPNIYVLDYLNETQQLTPEIKSKAIGYLNTGYQRQLNYKHYDGSYSTFGERYGRNQGNTWLTAFVLKTFAQARAYIFIDEAHITQALIWLSQRQKDNGCFRSSGSLLNNAIKGGVEDEVTLSAYITIALLEIPLTVTHPVVRNALFCLESAWKTAQEGDHGSHVYTKALLAYAFALAGNQDKRKEVLKSLNEEAVKKDNSVHWERPQKPKAPVGHFYEPQAPSAEVEMTSYVLLAYLTAQPAPTSEDLTSATNIVKWITKQQNAQGGFSSTQDTVVALHALSKYGAATFTRTGKAAQVTIQSSGTFSSKFQVDNNNRLLLQQVSLPELPGEYSMKVTGEGCVYLQTSLKYNILPEKEEFPFALGVQTLPQTCDEPKAHTSFQISLSVSYTGSRSASNMAIVDVKMVSGFIPLKPTVKMLERSNHVSRTEVSSNHVLIYLDKVSNQTLSLFFTVLQDVPVRDLKPAIVKVYDYYETDEFAIAEYNAPCSKDLGNADYKDDDDKGASHHHHHH

- Protease Inhibition (% of WT) [1]: 191 % of WT
- Protease Inhibition (% of WT) [2]: 16 % of WT
- Protease Inhibition (% of WT) [3]: 128 % of WT
- Protease Inhibition (% of WT) [4]: 412 % of WT
- Protease Inhibition (% of WT) [5]: 27 % of WT
- Protease Inhibition (% of WT) [6]: 134 % of WT
- Protease Inhibition (% of WT) [7]: 106 % of WT
- Protease Inhibition (% of WT) [8]: 25 % of WT
- Protease Inhibition (% of WT) [9]: 111 % of WT
- Protease Inhibition (% of WT) [10]: 159 % of WT
- Protease Inhibition (% of WT) [11]: 38 % of WT
B2: Variant A2M, bait region SEQ ID NO 10 (other)
chain: SVSGKPQYMVLVPSLLHTETTEKGCVLLSYLNETVTVSASLESVRGNRSLFTDLEAENDVLHCVAFAVPKSSSNEEVMFLTVQVKGPTQEFKKRTTVMVKNEDSLVFVQTDKSIYKPGQTVKFRVVSMDENFHPLNELIPLVYIQDPKGNRIAQWQSFQLEGGLKQFSFPLSSEPFQGSYKVVVQKKSGGRTEHPFTVEEFVLPKFEVQVTVPKIITILEEEMNVSVCGLYTYGKPVPGHVTVSICRKYSDASDCHGEDSQAFCEKFSGQLNSHGCFYQQVKTKVFQLKRKEYEMKLHTEAQIQEEGTVVELTGRQSSEITRTITKLSFVKVDSHFRQGIPFFGQVRLVDGKGVPIPNKVIFIRGNEANYYSNATTDEHGLVQFSINTTNVMGTSLTVRVNYKDRSPCYGYQWVSEEHEEAHHTAYLVFSPSKSFVHLEPMSHELPCGHTQTVQAHYILNGGTLLGLKKLSFYYLIMAKGGIVRTGTHGLLVKQEDMKGHFSISIPVKSDIAPVARLLIYAVLPTGDVIGDSAKYDVENCLANKVDLSFSPSQSLPASHAHLRVTAAPQSVCALRAVDQSVLLMKPDAELSASSVYNLLPEKDLTGFPGPLNDQDDEDCINRHNVYINGITYTPVSSTNEKDMYSFLEDMGLKAFTNSKIRKPKMCPQLEHGPEGEGLGEGIPENFYGVSEDLVVQISELEGRGSVEEPHTKLRKYFPETWIWDLVVVNSAGVAEVGVTVPDTITEWKAGAFCLSEDAGLGISSTASLRAFQPFFVELTMPYSVIRGEAFTLKATVLNYLPKCIRVSVQLEASPAFLAVPVEKEQAPHCICANGRQTVSWAVTPKSLGNVNFTVSAEALESQELCGTEVPSVPEHGRKDTVIKPLLVEPEGLEKETTFNSLLCPSGGEVSEELSLKLPPNVVEESARASVSVLGDILGSAMQNTQNLLQMPYGCGEQNMVLFAPNIYVLDYLNETQQLTPEIKSKAIGYLNTGYQRQLNYKHYDGSYSTFGERYGRNQGNTWLTAFVLKTFAQARAYIFIDEAHITQALIWLSQRQKDNGCFRSSGSLLNNAIKGGVEDEVTLSAYITIALLEIPLTVTHPVVRNALFCLESAWKTAQEGDHGSHVYTKALLAYAFALAGNQDKRKEVLKSLNEEAVKKDNSVHWERPQKPKAPVGHFYEPQAPSAEVEMTSYVLLAYLTAQPAPTSEDLTSATNIVKWITKQQNAQGGFSSTQDTVVALHALSKYGAATFTRTGKAAQVTIQSSGTFSSKFQVDNNNRLLLQQVSLPELPGEYSMKVTGEGCVYLQTSLKYNILPEKEEFPFALGVQTLPQTCDEPKAHTSFQISLSVSYTGSRSASNMAIVDVKMVSGFIPLKPTVKMLERSNHVSRTEVSSNHVLIYLDKVSNQTLSLFFTVLQDVPVRDLKPAIVKVYDYYETDEFAIAEYNAPCSKDLGNADYKDDDDKGASHHHHHH
